{"source": "patent US20190201435", "about": "“MODULATORS OF VAULT RNAS FOR USE IN THE TREATMENT OF DISEASES” (European Molecular Biology Laboratory, published 2019)", "key": {"MBP tag only": {"target": "MBP tag only (UniProt P0AEX9 P0AEX9:27-396)", "assay": "EMSA; MBP tag control"}, "[1]": {"target": "p62 (SQSTM1, sequestosome 1) wild type (UniProt Q13501 Q13501:1-440)", "assay": "EMSA; apparent Kd, TBE pH 8.3 gel; competed by cold vtRNA1-1", "details": "tags: MBP; (radioactive in EMSA); terminal stem loop, single-stranded loops in central domain"}}}
{"binder": "vtRNA1-1 (ssRNA) RNA: GGCUGGCUUUAGCUCAGCGGUUACUUCGACAGUUCUUUAAUUGAAACAAGCAACCUGUCUGGGUUGUUCGAGACCCGCGGGCGCUCUCCAGUCCUUUU", "values": [{"measurement": "binding result", "setting": "MBP tag only", "result": "no binding"}, {"measurement": "Kd", "setting": "[1]", "result": "~60", "unit": "nM"}]}
